Source: patent US20210221899A1 (published 2021)

T1: canine NGF (canine, UniProt Q29074 110-229 (pig entry), limits assumed)
T1 construct: The protein was secreted from CHO cells and purified; also called cNGF; canine β-NGF
T1 chain: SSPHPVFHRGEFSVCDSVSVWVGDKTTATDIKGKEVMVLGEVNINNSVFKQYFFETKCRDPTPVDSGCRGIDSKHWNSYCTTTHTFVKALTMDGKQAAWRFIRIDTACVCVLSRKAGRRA

T2: human NGF (human, UniProt P01138 122-241)
T2 construct: also called human Nerve Growth Factor; hN
T2 chain: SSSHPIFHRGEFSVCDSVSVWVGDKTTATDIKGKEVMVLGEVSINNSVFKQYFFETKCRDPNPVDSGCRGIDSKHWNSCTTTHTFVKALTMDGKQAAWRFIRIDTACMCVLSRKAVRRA


Columns and labels:
Assay in all cases: SPR (Biacore T200), 100 nM mAb on NGF chip, similarity to parent mAb
[1] = molecular target: T1, canine NGF
Source text: (§1) The region of an antibody responsible for antigen recognition represents the paratope. A paratope is created by a combination of amino acids in the complementarity determining regions (CDRs) of both the heavy and light chain variable regions. The binding between antibody and antigen is often mediated by side chains of CDR residues with side chains or carbohydrate moieties of the antigen. To help define critical side chains involved in antibody recognition alanine scanning mutagenesis was performed on each CDR residue in both the heavy and light chain, the technique as described by Cunningham and Wells (1989) Science, Vol. 244, Issue 4908, pp. 1081-1085. These mutants were then individually tested for the ability to NGF using the Biacore. […] Values were then compared to the wild type antibodies and are represented in the tables as a percent of wild type binding. The data presented in Tables 4 and 5 below are shown as a “percent similarity score” compared to wild type.
(§2) The mean response unit of four replicates of the parent mAb+/−3 standard deviations was used to generate parameters to define a threshold of response units comprising both the on- and off-rates antibody binding. The percentage of data points for each mutant fell within this threshold was then used to define a “% similarity score”. […] Results from substitution of alanine at each CDR position

[2] = molecular target: T3, rat NGF (rat, UniProt P25427 122-241)
T3 construct: also called rN
T3 sequence (P25427 122-241 limits assumed): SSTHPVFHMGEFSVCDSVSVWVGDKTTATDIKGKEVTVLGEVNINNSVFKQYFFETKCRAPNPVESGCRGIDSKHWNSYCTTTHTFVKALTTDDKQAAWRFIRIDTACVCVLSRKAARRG
Source text: as §1, §2

[3] = molecular target: T2, human NGF
Source text: as §1, §2

Binder	Percent Similarity Score (KD on cN) [1]	Percent Similarity Score (KD on rN) [2]	Percent Similarity Score (KD on hN) [3]
can9L12VH_V108A (antibody, V domains shown) VH: EVQLVESGGDLVKPGGSLRLSCVASGFTFSSHGMHWVRQSPGKGLQWVAVINSGGSSTYYTDAVKGRFTISRDNAKNTVYLQMNSLRAEDTAMYYCAKESVGGWEQLAGPHFDYWGQGTLVIVSS VL: QSVLTQPTSVSGSLGQRVTISCSGSTNNIGILGASWYQLFPGKAPKLLVYGNGNRPSGVPDRFSGADSGDSVTLTITGLQAEDEADYYCQSFDTTLGAHVFGGGTHLTVL	93.2%	62%	56.3%
can9L12VL_F92A (antibody, V domains shown) VH: EVQLVESGGDLVKPGGSLRLSCVASGFTFSSHGMHWVRQSPGKGLQWVAVINSGGSSTYYTDAVKGRFTISRDNAKNTVYLQMNSLRAEDTAMYYCAKESVGGWEQLVGPHFDYWGQGTLVIVSS VL: QSVLTQPTSVSGSLGQRVTISCSGSTNNIGILGASWYQLFPGKAPKLLVYGNGNRPSGVPDRFSGADSGDSVTLTITGLQAEDEADYYCQSADTTLGAHVFGGGTHLTVL	7.2%	2.3%	2.7%
can9L12VL_G53A (antibody, V domains shown) VH: EVQLVESGGDLVKPGGSLRLSCVASGFTFSSHGMHWVRQSPGKGLQWVAVINSGGSSTYYTDAVKGRFTISRDNAKNTVYLQMNSLRAEDTAMYYCAKESVGGWEQLVGPHFDYWGQGTLVIVSS VL: QSVLTQPTSVSGSLGQRVTISCSGSTNNIGILGASWYQLFPGKAPKLLVYGNANRPSGVPDRFSGADSGDSVTLTITGLQAEDEADYYCQSFDTTLGAHVFGGGTHLTVL	34.2%	11.7%	10%
can9L12VL_G97A (antibody, V domains shown) VH: EVQLVESGGDLVKPGGSLRLSCVASGFTFSSHGMHWVRQSPGKGLQWVAVINSGGSSTYYTDAVKGRFTISRDNAKNTVYLQMNSLRAEDTAMYYCAKESVGGWEQLVGPHFDYWGQGTLVIVSS VL: QSVLTQPTSVSGSLGQRVTISCSGSTNNIGILGASWYQLFPGKAPKLLVYGNGNRPSGVPDRFSGADSGDSVTLTITGLQAEDEADYYCQSFDTTLAAHVFGGGTHLTVL	98.9%	35.9%	43.3%
can9L12VL_G51A (antibody, V domains shown) VH: EVQLVESGGDLVKPGGSLRLSCVASGFTFSSHGMHWVRQSPGKGLQWVAVINSGGSSTYYTDAVKGRFTISRDNAKNTVYLQMNSLRAEDTAMYYCAKESVGGWEQLVGPHFDYWGQGTLVIVSS VL: QSVLTQPTSVSGSLGQRVTISCSGSTNNIGILGASWYQLFPGKAPKLLVYANGNRPSGVPDRFSGADSGDSVTLTITGLQAEDEADYYCQSFDTTLGAHVFGGGTHLTVL	100%	99.9%	100%
can9L12VL_G30A (antibody, V domains shown) VH: EVQLVESGGDLVKPGGSLRLSCVASGFTFSSHGMHWVRQSPGKGLQWVAVINSGGSSTYYTDAVKGRFTISRDNAKNTVYLQMNSLRAEDTAMYYCAKESVGGWEQLVGPHFDYWGQGTLVIVSS VL: QSVLTQPTSVSGSLGQRVTISCSGSTNNIAILGASWYQLFPGKAPKLLVYGNGNRPSGVPDRFSGADSGDSVTLTITGLQAEDEADYYCQSFDTTLGAHVFGGGTHLTVL	53.9%	13.8%	16.2%
can9L12VL_I31A (antibody, V domains shown) VH: EVQLVESGGDLVKPGGSLRLSCVASGFTFSSHGMHWVRQSPGKGLQWVAVINSGGSSTYYTDAVKGRFTISRDNAKNTVYLQMNSLRAEDTAMYYCAKESVGGWEQLVGPHFDYWGQGTLVIVSS VL: QSVLTQPTSVSGSLGQRVTISCSGSTNNIGALGASWYQLFPGKAPKLLVYGNGNRPSGVPDRFSGADSGDSVTLTITGLQAEDEADYYCQSFDTTLGAHVFGGGTHLTVL	41.2%	12.6%	11.4%
can9L12VH_W104A (antibody, V domains shown) VH: EVQLVESGGDLVKPGGSLRLSCVASGFTFSSHGMHWVRQSPGKGLQWVAVINSGGSSTYYTDAVKGRFTISRDNAKNTVYLQMNSLRAEDTAMYYCAKESVGGAEQLVGPHFDYWGQGTLVIVSS VL: QSVLTQPTSVSGSLGQRVTISCSGSTNNIGILGASWYQLFPGKAPKLLVYGNGNRPSGVPDRFSGADSGDSVTLTITGLQAEDEADYYCQSFDTTLGAHVFGGGTHLTVL	19.2%	8.2%	5.2%
can9L12VL_H99A (antibody, V domains shown) VH: EVQLVESGGDLVKPGGSLRLSCVASGFTFSSHGMHWVRQSPGKGLQWVAVINSGGSSTYYTDAVKGRFTISRDNAKNTVYLQMNSLRAEDTAMYYCAKESVGGWEQLVGPHFDYWGQGTLVIVSS VL: QSVLTQPTSVSGSLGQRVTISCSGSTNNIGILGASWYQLFPGKAPKLLVYGNGNRPSGVPDRFSGADSGDSVTLTITGLQAEDEADYYCQSFDTTLGAAVFGGGTHLTVL	100%	43.7%	56.9%
can9L12VH_Y114A (antibody, V domains shown) VH: EVQLVESGGDLVKPGGSLRLSCVASGFTFSSHGMHWVRQSPGKGLQWVAVINSGGSSTYYTDAVKGRFTISRDNAKNTVYLQMNSLRAEDTAMYYCAKESVGGWEQLVGPHFDAWGQGTLVIVSS VL: QSVLTQPTSVSGSLGQRVTISCSGSTNNIGILGASWYQLFPGKAPKLLVYGNGNRPSGVPDRFSGADSGDSVTLTITGLQAEDEADYYCQSFDTTLGAHVFGGGTHLTVL	100%	99.2%	99.9%
can9L12VL_D93A (antibody, V domains shown) VH: EVQLVESGGDLVKPGGSLRLSCVASGFTFSSHGMHWVRQSPGKGLQWVAVINSGGSSTYYTDAVKGRFTISRDNAKNTVYLQMNSLRAEDTAMYYCAKESVGGWEQLVGPHFDYWGQGTLVIVSS VL: QSVLTQPTSVSGSLGQRVTISCSGSTNNIGILGASWYQLFPGKAPKLLVYGNGNRPSGVPDRFSGADSGDSVTLTITGLQAEDEADYYCQSFATTLGAHVFGGGTHLTVL	11%	3.7%	3.3%
can9L12VL_G33A (antibody, V domains shown) VH: EVQLVESGGDLVKPGGSLRLSCVASGFTFSSHGMHWVRQSPGKGLQWVAVINSGGSSTYYTDAVKGRFTISRDNAKNTVYLQMNSLRAEDTAMYYCAKESVGGWEQLVGPHFDYWGQGTLVIVSS VL: QSVLTQPTSVSGSLGQRVTISCSGSTNNIGILAASWYQLFPGKAPKLLVYGNGNRPSGVPDRFSGADSGDSVTLTITGLQAEDEADYYCQSFDTTLGAHVFGGGTHLTVL	7.5%	2.9%	2.3%
can9L12VL_I29A (antibody, V domains shown) VH: EVQLVESGGDLVKPGGSLRLSCVASGFTFSSHGMHWVRQSPGKGLQWVAVINSGGSSTYYTDAVKGRFTISRDNAKNTVYLQMNSLRAEDTAMYYCAKESVGGWEQLVGPHFDYWGQGTLVIVSS VL: QSVLTQPTSVSGSLGQRVTISCSGSTNNAGILGASWYQLFPGKAPKLLVYGNGNRPSGVPDRFSGADSGDSVTLTITGLQAEDEADYYCQSFDTTLGAHVFGGGTHLTVL	4.4%	1.6%	1.5%
